Experimental data: patent US20240166754A1 (SYNTHEKINE, published 2024)

B1: hIL12Rb1_VHH1 (VHH)
VHH: QVQLQESGGGSVQAGGSLRLSCVASGYGYCGYDMSWYRQAPGKEREFVALITSDRSISYEDSVKARFIISRDNAANTGYLDMTRLTPDDTAIYYCKTSAAARESSWCRSRYRVASWGQGTQVTVSS
notes: Camel VHH
B2: hIL12Rb1_VHH10 (VHH)
VHH: QVQLQESGGGSVQAGGSLRLSCAVSGYDYCGYDVRWYRQAPGKEREFVSGIDSDGSTSYADSVKGRFTISQDNAENTSYLHMFSLKPEDTAMYYCKTESPAGESAWCRNFRGMDYWGKGTQVTVSS
notes: Camel VHH
B3: hIL12Rb1_VHH7 (VHH)
VHH: QVQLQESGGGSVQAGGSLRLSCAVSGYDYCGYDVRWYRRAPGKEREFVSGIDSDGSTSYADSVKGRFTISQDNAENTSYLHMFSLKPEDTAMYYCKTESPAGESAWCRNFRGMDYWGKGTQVTVSS
notes: Camel VHH
B4: mIL12Rb1_VHH19 (VHH)
VHH: QVQLQESGGGSVQAGGFLRLSCVASGYGYCGYDMSWYRQVPGKEREFVALITSDRSVSYEDSVKGRFSISRDNAKNTAYLEMNRLTPDDTAIYYCKTSTAARENNWCRSRYRIASWGQGTQVTVSS
notes: Camel VHH
B5: mIL12Rb1_VHH8 (VHH)
VHH: QVQLQESGGGSVQAGGFLRLSCVASGYGYCGYDMSWYRQAPGKEREFVALITSERVISYEDSVKGRFSISRDNAENTGYLEMNRLTPDDTAIYYCKTSAAARESSWCRSRYRVASWGQGTQVTVSS
notes: Camel VHH
B6: mIL12Rb1_VHH20 (VHH)
VHH: QVQLQESGGGSVQAGGSLRLSCVASGYGYCGYDMSWYRQTPGKEREFVALITSDRIASYEDSVKGRFIISRDNAKNTGYLDMTRVTPDDTAIYYCKTSAAARENSWCRSRYRVASWGQGTQVTVSS
notes: Camel VHH
B7: mIL12Rb1_VHH15 (VHH)
VHH: QVQLQESGGGSVQAGGFLRLSCVASGYGYCGYDMSWYRQVPGKEREFVALITSDRSVSYEDSVKGRFSISRDNAKNTAYLEMNRLTPDDTAVYYCKTSTAARENNWCRSRYRIAYWGQGTQVTVSS
notes: Camel VHH
B8: mIL12Rb1_VHH9 (VHH)
VHH: QVQLQESGGGSVQAGGSLRLSCVASGYGYCGYDMSWYRQAPGKEREFVALITSDRSISYEDSVKARFIISRDNAANTGYLDMTRLTPDDTAIYYCKTSAAARESSWCRSRYRVASWGQGTQVTVSS
notes: Camel VHH
B9: mIL12Rb1_VHH3 (VHH)
VHH: QVQLQESGGGSVQAGGSLRLSCVASGYSYCGYDMMWYRQAPGKEREFVALITSDYSIRYEDSVEGRFSISRDNAKNTGYLLMSNLTPADTAIYYCKTSTAARESSWCRSRYRVASWGQGTQVTVSS
notes: Camel VHH
B10: mIL12Rb1_VHH11 (VHH)
VHH: QVQLQESGGGSVQAGGSLRLSCVASGYSYCGYDMMWYRQAPGKEREFVALITSDYSIRYEDSVEGRFSISRDNAKNTGYLLMSNLTPADTAIYYCKTSTAARESSWCRSRYRVASWGQGTQVTVSS
notes: Camel VHH
B11: mIL12Rb1_VHH13 (VHH)
VHH: QVQLQESGGGSVQAGGSLRLSCVASGYSYCGYDMMWYRQAPGKEREFVALITSDYSIRYEDSVEGRFSISRDNAKNTGYLLMSNLTPADTAIYYCKTSTAARESGWCRSRYRVASWGQGTQVTVSS
notes: Camel VHH
B12: mIL12Rb1_VHH5 (VHH)
VHH: QVQLQESGGGSVQAGETLRLSCTVSGFTIDDSEMGWYRQAPGHECELVASGSSDDDTYYVDSVKGRFTISLDNAKNMVYLQMNSLKPEDTAVYYCATGPTYPPKDGDCAHWGQGTQVTVSS
notes: Camel VHH
B13: mIL12Rb1_VHH4 (VHH)
VHH: QVQLQESGGGSVQAGGSLRLSCAASRYTYTNNFMAWFRQAPGKEREGVAAIYTGDGYAYYFDSVKGRFTISQDNDKNMLYLQMNSLKPEDTAMYYCAAMERRSGRRRMTENAEYKYWGQGTQVTVSS
notes: Camel VHH
B14: mIL12Rb1_VHH12 (VHH)
VHH: QVQLQESGGGSVQAGGSLRLSCAASRYTYTNNFMAWFRQAPGKEREGVAAIYTGDGYAYYFYSVKGRFTISQDNDENMLYLQMNSLKPEDTAMYYCAAMERRIGTRRMTENAEYKYWGQGTQVTVSS
notes: Camel VHH
B15: mIL12Rb1_VHH10 (VHH)
VHH: QVQLQESGGGSVQAGGSLRLSCAVSGYDYCGYDVRWYRQAPGKEREFVSGIDSDGSTSYADSVKGRFTISQDNAENTSYLHMFSLKPEDTAMYYCKTESPAGESAWCRNFRGMDYWGKGTQVTVSS
notes: Camel VHH
B16: mIL12Rb1_VHH2 (VHH)
VHH: QVQLQESGGGSVQAGGSLRLSCAVSGYDYCGYDVRWYRQAPGKEREFVSGIDSDGSTSYADSVKGRFTISQDNAENTSYLHMFSLKPEDTAMYYCKTESPAGESAWCRNFRGMDYWGKGTQVTVSS
notes: Camel VHH
B17: mIL12Rb1_VHH21 (VHH)
VHH: QVQLQESGGGSVQAGGSLRLSCAVSGYDYCGYDVRWYRRAPGKEREFVSGIDSDGSTSYADSVKGRFTISQDNAENTSYLHMFSLKPEDTAMYYCKTESPAGESAWCRNFRGMDYWGKGTQVTVSS
notes: Camel VHH
B18: mIL12Rb1_VHH14 (VHH)
VHH: QVQLQESGGGSVQAGGSLRLSCAVSGYDYCGYDVRWYRQAPGKEREFVSGINSDGSTSYADSVKGRFTISQDNAENTSYLHMFSLKPEDTAMYYCKTESPAGESAWCRNFRGMDYWGKGTQVTVSS
notes: Camel VHH
B19: mIL12Rb1_VHH16 (VHH)
VHH: QVQLQESGGGSVQAGGSLRLSCAVSGYDYCGYDVRWYRQAPGKEREFVSGINSDGSTSYADSVKGRFTISQDNAENTSYLHMFSLKPEDTAMYYCKTEGPAGESAWCRNFRGMDYWGKGTQVTVSS
notes: Camel VHH
B20: mIL12Rb1_VHH7 (VHH)
VHH: QVQLQESGGGSVQAGGSLRLSCAVSGYDYCGYDVRWYRRAPGKEREFVSGIDSDGSTSYADSVKGRFTISQDNAENTSYLHMFSLKPEDTAMYYCKTESPAGESAWCRNFRGMDYWGKGTQVTVSS
notes: Camel VHH
B21: mIL12Rb1_VHH1 (VHH)
VHH: QVQLQESGGGSVQAGGSLRLSCTASGYTYSSAFMAWFRQAPGKEREGVAAIYTRDGGTVYADSVKGRFTISQDNAKNTLYLQMNSLKAEDTAMYYCAAKIPQPGRASLLDSQTYDYWGQGTQVTVSS
notes: Camel VHH
B22: mIL12Rb1_VHH22 (VHH)
VHH: QVQLQESGGGSVQAGGSLRLSCTASGYTYSSAFMAWFRQAPGKEREGVAAIYTRDGGTVYADSVKGRFTISQDNAKNILYLQMNSLKAEDTAMYYCAAKIPQPGRASLLDSQTYDYWGQGTQVTVSS
notes: Camel VHH
B23: mIL12Rb1_VHH23 (VHH)
VHH: QVQLQESGGGSVQAGGSLRLSCTASGYTYSSAFMAWFRQAPGKEREGVAAIYTRDGGTVYADSVKGRFTISQDNAKNTLYLQMNSLKPEDTAMYYCAAKMPQPGRASLLDSQTYDYWGQGTQVTVSS
notes: Camel VHH
B24: mIL12Rb1_VHH6 (VHH)
VHH: QVQLQESGGGSVQAGGSLRLSCTASGYTYSSAFMAWFRQAPGKEREGVAAIYTRDGSPVYADSLKGRFTISQDNAKNTLHLQMNSLKPEDTAMYYCAAKIPEPGRISLLDSQTYDYWGHGTQVTVSS
notes: Camel VHH
B25: mIL12Rb1_VHH18 (VHH)
VHH: QVQLQESGGGSVQAGGSLRLSCTASGYTYSSAFMAWFRQAPGKEREGVAAMYTRDGGTVYADSVKGRFTISQDNAKNTLYLQMNSLKTEDTAMYYCAAKIPQPGRASLLDSQTYDYWGQGTQVTVSS
notes: Camel VHH
B26: mIL12Rb1_VHH17 (VHH)
VHH: QVQLQESGGGSVQAGGSLRLSCTASGYTYSSAFMAWFRQAPGKEREGVAAMYTRDGGTVYADSVKGRFTISQDNAKNTLYLQIHTLKAEDTAMYYCAAKIPQPGRASLLDSQTYDYWGQGTQVTVSS
notes: Camel VHH

molecular target: T1, extracellular domain of human IL12RB1 (hIL12Rb1 ECD antigen) (human, UniProt P42701 24-545); assay: periplasmic extract ELISA on antigen-coated plate after phage biopanning
T1 construct: also called IL12Rβ1; CD212
Description: (§1) Upon completion of the biopanning of Example 3, three 96-well plates of individual phage clones were isolated in order to perform periplasmic extract ELISA (PE-ELISA) on IL12Rb1 coated plates to identify positive VHH binders that selectively bound IL12Rb1. A 96-well plate was coated with IL12Rb1 and PBS under the same conditions. Next, wells were blocked at 37° ° C. for 1 h. Then, 100 μl of extracted antibodies was added to each well and incubated for 1 h. Subsequently, 100 μl of anti-tag polyclonal antibody conjugated to HRP was added to each well and incubated at 37 °C for 1 h. Plates were developed with TMB substrate. The reaction was stopped by the addition of H2SO4. Absorbance at 450 nm was read on a microtiter plate reader. Antibodies with absorbance of the antigen-coated well at least threefold greater than PBS-coated control are VHHs that specifically bind to IL12Rb1. Positive clones were sequenced, and sequences analyzed to identify unique clonotypes.

Binding result, binds:
B1
B2
B3

molecular target: T2, extracellular domain of mouse IL12RB1 (mIL12Rb1 ECD antigen) (mouse, UniProt Q60837 20-565); assay: as above
T2 construct: also called murine IL12RB1
T2 sequence: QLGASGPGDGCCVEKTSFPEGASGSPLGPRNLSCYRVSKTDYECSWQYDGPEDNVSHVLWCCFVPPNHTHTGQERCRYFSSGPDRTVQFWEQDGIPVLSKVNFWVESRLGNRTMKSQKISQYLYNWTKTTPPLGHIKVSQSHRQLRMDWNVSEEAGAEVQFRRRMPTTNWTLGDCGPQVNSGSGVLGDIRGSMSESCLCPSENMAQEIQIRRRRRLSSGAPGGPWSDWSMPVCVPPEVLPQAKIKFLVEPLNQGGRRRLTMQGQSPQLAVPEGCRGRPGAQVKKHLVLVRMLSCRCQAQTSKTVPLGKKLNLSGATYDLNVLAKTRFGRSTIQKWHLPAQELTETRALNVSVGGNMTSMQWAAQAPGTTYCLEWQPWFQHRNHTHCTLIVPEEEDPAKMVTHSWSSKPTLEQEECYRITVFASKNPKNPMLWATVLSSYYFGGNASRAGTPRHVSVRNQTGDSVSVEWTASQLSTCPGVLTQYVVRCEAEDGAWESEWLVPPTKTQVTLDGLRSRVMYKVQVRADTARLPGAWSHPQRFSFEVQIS
Description: as §1

Binding result, binds:
B4
B5
B6
B7
B8
B9
B10
B11
B12
B13
B14
B15
B16
B17
B18
B19
B20
B21
B22
B23
B24
B25
B26
